Target: the molecule itself
Assay: crystal structure; crystals grown in 15% PEG200, 0.1 M MES pH 6.5; space group P2(1)2(1)2, one trimer in the asymmetric unit; soaked with 10 mM α-2,3-sialyllactose, α-2,6-sialyllactose or α-2,8-disialyllactose

B1: reovirus type 3 Dearing (T3D) attachment protein σ1, body and head domains (residues 170-455), Ile249 (domain or fragment)
chain: VTSAGAPLSIRNNRMTMGLNDGLTLSGNNLAIRLPGNTGLNIQNGGLQFRFNTDQFQIVNNNLTLKTTVFDSINSRIGAIEQSYVASAVTPLRLNSSTKVLDMLIDSSTLEINSSGQLTVRSTSPNLRYPIADVSGGIGMSPNYRFRQSMWIGIVSYSGSGLNWRVQVNSDIFIVDDYIHICLPAFDGFSIADGGDLSLNFVTGLLPPLLTGDTEPAFHNDVVTYGAQTVAIGLSSGGAPQYMSKNLWVEQWQDGVLRLRVEGGGSITHSNSKWPAMTVSYPRSFT
notes: The His6-tagged GCN4 trimerization domain was removed by trypsin before the final purification and crystallization; also called T3D σ1; reovirus attachment protein σ1; source: E. coli Rosetta 2 DE3, purified (Ni-IMAC, on-column trypsin digestion, Superdex-200 SEC); not shown: His6, N-terminal, cleaved; GCN4 trimerization domain (modified GCN4 leucine zipper), N-terminal, cleaved
  stoichiometry N: 3

From publication PMC3150272, “Crystal Structure of Reovirus Attachment Protein σ1 in Complex with Sialylated Oligosaccharides” (PLoS Pathogens, 2011)
